The values that follow come from paper PMC7948593, “Dynamic multimerization of Dab2–Myosin VI complexes regulates cargo processivity while minimizing cortical actin reorganization” (The Journal of Biological Chemistry, 2021).

B1: Cy3-labeled full-length myosin VI (natural protein, human, UniProt Q9UM54 1-1294, looked up)
chain: MEDGKPVWAPHPTDGFQMGNIVDIGPDSLTIEPLNQKGKTFLALINQVFPAEEDSKKDVEDNCSLMYLNEATLLHNIKVRYSKDRIYTYVANILIAVNPYFDIPKIYSSEAIKSYQGKSLGTRPPHVFAIADKAFRDMKVLKMSQSIIVSGESGAGKTENTKFVLRYLTESYGTGQDIDDRIVEANPLLEAFGNAKTVRNNNSSRFGKFVEIHFNEKSSVVGGFVSHYLLEKSRICVQGKEERNYHIFYRLCAGASEDIREKLHLSSPDNFRYLNRGCTRYFANKETDKQILQNRKSPEYLKAGSMKDPLLDDHGDFIRMCTAMKKIGLDDEEKLDLFRVVAGVLHLGNIDFEEAGSTSGGCNLKNKSAQSLEYCAELLGLDQDDLRVSLTTRVMLTTAGGTKGTVIKVPLKVEQANNARDALAKTVYSHLFDHVVNRVNQCFPFETSSYFIGVLDIAGFEYFEHNSFEQFCINYCNEKLQQFFNERILKEEQELYQKEGLGVNEVHYVDNQDCIDLIEAKLVGILDILDEENRLPQPSDQHFTSAVHQKHKDHFRLTIPRKSKLAVHRNIRDDEGFIIRHFAGAVCYETTQFVEKNNDALHMSLESLICESRDKFIRELFESSTNNNKDTKQKAGKLSFISVGNKFKTQLNLLLDKLRSTGASFIRCIKPNLKMTSHHFEGAQILSQLQCSGMVSVLDLMQGGYPSRASFHELYNMYKKYMPDKLARLDPRLFCKALFKALGLNENDYKFGLTKVFFRPGKFAEFDQIMKSDPDHLAELVKRVNHWLTCSRWKKVQWCSLSVIKLKNKIKYRAEACIKMQKTIRMWLCKRRHKPRIDGLVKVGTLKKRLDKFNEVVSVLKDGKPEMNKQIKNLEISIDTLMAKIKSTMMTQEQIQKEYDALVKSSEELLSALQKKKQQEEEAERLRRIQEEMEKERKRREEDEKRRRKEEEERRMKLEMEAKRKQEEEERKKREDDEKRIQAEVEAQLARQKEEESQQQAVLEQERRDRELALRIAQSEAELISDEAQADLALRRSLDSYPVSKNDGTRPKMTPEQMAKEMSEFLSRGPAVLATKAAAGTKKYDLSKWKYAELRDTINTSCDIELLAACREEFHRRLKVYHAWKSKNKKRNTETEQRAPKSVTDYDFAPFLNNSPQQNPAAQIPARQREIEMNRQQRFFRIPFIRPADQYKDPQSKKKGWWYAHFDGPWIARQMELHPDKPPILLVAGKDDMEMCELNLEETGLTRKRGAEILPRQFEEIWERCGGIQYLQNAIESRQARPTYATAMLQSLLK
modifications: Cy3 label
notes: Myosin VI, human, the isoform containing both the long insert (LI) and short insert (SI); probably Myosin VI FL-SNAP (C-terminal SNAP, FLAG and 6X-His tags); Assay buffers held 10 uM calmodulin; The surface gliding assays used dark myosin VI FL-FLAG; also called Cy3-myosin VI; myosin VI FL
B2: Dab2 myosin interacting region (MIR) with C-terminal eGFP (domain or fragment, human, UniProt P98082 675-713, looked up)
chain: SSGTLSAFASYFNSKVGIPQENADHDDFDANQLLNKINE
notes: Dab2, human, a.a; fluorophore joined through a flexible (Gly-Ser-Gly) x 2 repeat; Held on DNA nanotubes or surfaces through a GFP nanobody (a tool); also called Dab2-MIR-GFP; GFP-tagged Dab2 MIR; not shown: eGFP, C-terminal, kept

One assay addresses myosin VI CBD (UniProt Q64331). To be noted: cited from earlier work.
Assay [1] has as its target B2. In words: single-molecule TIRF binding assay; adaptor-GFP held through GFP nanobody-SNAP on DNA nanotubes; Cy3-labeled myosin VI at 50 pM in AB.BSA.Cam; 20 Hz for 3 min; bound and rebinding times fitted to a single-exponential decay. The following applies: both partners purified.
Assay [2] concerns the target B1. The description is as above. The following applies: both partners purified.
The target in assay [3] is T1, Myosin VI cargo-binding domain (CBD) with C-terminal mCerulean (human, UniProt Q9UM54 991-1294, C-terminal mCerulean omitted. Limits are those printed for the Kd FRET assay (CBD 991-1294, LI+SI isoform of 1294 aa); the construct list instead gives 1030-1284.).
T1 chain: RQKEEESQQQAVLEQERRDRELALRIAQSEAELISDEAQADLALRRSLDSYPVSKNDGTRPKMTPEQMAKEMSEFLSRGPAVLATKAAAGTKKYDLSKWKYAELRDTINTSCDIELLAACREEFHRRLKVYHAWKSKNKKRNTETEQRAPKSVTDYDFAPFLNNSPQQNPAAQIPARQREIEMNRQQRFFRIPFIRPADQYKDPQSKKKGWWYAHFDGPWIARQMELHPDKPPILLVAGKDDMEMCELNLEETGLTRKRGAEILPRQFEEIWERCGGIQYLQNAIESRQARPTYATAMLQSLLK
In words: FRET or BRET; bimolecular FRET titration in solution; CBD-mCer held constant at 30 nM, increasing DAB2-MIR-mCit titrated in; excitation 430 nm, cross-excitation spectra subtracted. The following applies: both partners purified. In general terms: BRET reads energy transfer from a luciferase to a nearby fluorophore.

Ends that are not written are not given here.

Sequence of myosin VI CBD (Q64331 1137-1262): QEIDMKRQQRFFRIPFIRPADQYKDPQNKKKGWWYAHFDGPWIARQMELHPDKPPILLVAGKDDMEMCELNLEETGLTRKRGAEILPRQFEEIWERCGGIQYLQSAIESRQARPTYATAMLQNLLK

As usually defined, the Kd is the constant that tells how readily two partners part at equilibrium. Dab2 MIR (from UniProt P98082): the Kd with myosin VI CBD is 500 nM.
For the molecule B1, the “half-life of the interaction” value in assay [1] is approximately 1.2 s.
By koff is commonly meant the first-order rate constant of dissociation. The low end stands for a long-lived complex, the high end for a short-lived complex. As for B2, the koff in assay [2] is 0.91 s⁻¹.

B3: Dab2 myosin interacting region (MIR) with C-terminal mCitrine (domain or fragment, human, UniProt P98082 675-713, looked up)
chain: SSGTLSAFASYFNSKVGIPQENADHDDFDANQLLNKINE-mCitrine
notes: Dab2, human, a.a; fluorophore joined through a flexible (Gly-Ser-Gly) x 2 repeat; Cloned into pBiex1; also called DAB2-MIR-mCit; mCit-MIR; not shown: mCitrine, C-terminal, kept
Turning to B3, the Kd in assay [3] is approximately 184 nM.
